Test results reported in article PMC8789040.

How the values were obtained:
[1] = target: T1, LS12 E34S (Archaeoglobus fulgidus scaffold, laboratory-evolved) (UniProt O29494); experiment: SPR; conditions: SPR: 10 mM HEPES pH 7.4, 150 mM NaCl, 1 mM MgCl2, 0.05% P20, 0.25 mM TCEP, 0.1 mg/ml BSA, 25 ug/ml yeast tRNA, 25 C, EMSA: 10 mM HEPES-KOH pH 7.5, 140 mM KCl …
T1 sequence: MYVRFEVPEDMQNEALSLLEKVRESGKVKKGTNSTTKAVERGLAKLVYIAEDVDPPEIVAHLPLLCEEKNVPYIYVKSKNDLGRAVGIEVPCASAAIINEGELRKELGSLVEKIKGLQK

[2] = target: LS4 (Archaeoglobus fulgidus scaffold, laboratory-evolved) (UniProt O29494); experiment: SPR; conditions: SPR: 10 mM HEPES pH 7.4, 150 mM NaCl, 1 mM MgCl2, 0.05% P20, 0.25 mM TCEP, 0.1 mg/ml BSA, 25 ug/ml yeast tRNA, 25 C; EMSA: 10 mM HEPES-KOH pH 7.5, 140 mM KCl …
[3] = target: LS4 (Archaeoglobus fulgidus scaffold, laboratory-evolved) (UniProt O29494); experiment: EMSA; conditions: titration regime; SPR: 10 mM HEPES pH 7.4, 150 mM NaCl, 1 mM MgCl2, 0.05% P20, 0.25 mM TCEP, 0.1 mg/ml BSA, 25 ug/ml yeast tRNA, 25 C; EMSA: 10 mM HEPES-KOH pH 7.5, 140 mM KCl …
[4] = target: T1, LS12 E34S (Archaeoglobus fulgidus scaffold, laboratory-evolved); experiment: EMSA; conditions: titration regime; SPR: 10 mM HEPES pH 7.4, 150 mM NaCl, 1 mM MgCl2, 0.05% P20, 0.25 mM TCEP, 0.1 mg/ml BSA, 25 ug/ml yeast tRNA, 25 C; EMSA: 10 mM HEPES-KOH pH 7.5, 140 mM KCl …

Question: How did the Kd ([1]; N.D. in Table S4) turn out when “GGUGGCAUAGAAAGGCGAAAGCCUUGUGUGGCCAUCAAAUCGACGAAAGACACAGAACG [CS1-M2]” was run?
Answer: > 1000 nM

Question: And the Kd [2]?
Answer: 2.21 nM

Question: For “GGCAGAGAAAGGCCAUACAAUCAUUGGCUUUUCCAUGACGCCAGUUCCAGUGGCAUCGACGAAAGACACAGAACG [LS12-1]”, which Kd [1] is on record?
Answer: 0.0105 nM

Question: What does the source list for “GGAUGCAGAGAACGAAAGUUCCAUGACGCAUCCAAAUCGACGAAAGACACAGAACG [CS2]”?
Answer: Kd [1]: 0.00724 nM; Kd [2]: 114 nM

Question: For “GGUGGCAAAGAAAGGCGAAAGCCUUGUGAGGCCAUCAAAUCGACGAAAGACACAGAACG [CS1-M2b]”, which Kd fold change relative to LS4 (fold higher Kd than LS4) [1] is on record?
Answer: 1270

Question: And the Kd [2]?
Answer: 0.0865 nM

Question: Which Kd [3] does the source give for “AGAGGCAGAGAAAGGGAAACCUUGUGAGGCCUCU [Cy5-CS1]” here?
Answer: < 0.5 nM

Question: With “GGCAGAGAAAGGCCAUACAAUCAUUGGCCUUGUGAGGCCGUGUGUCUUCCAGUGGCAUCGACGAAAGACACAGAACG [LS4-1]” as the sequence, how does the Kd [2] read?
Answer: 0.0736 nM

Question: What does the source list for “GGUGGCUGAGAAAGGCGAAAGCCUUGUGAUGCCAUCAAAUCGACGAAAGACACAGAACG [CS1-M1]”?
Answer: Kd ([1]; equilibrium analysis): 7.7 nM; Kd [2]: 0.171 nM

Question: “GGAUCGCGUGAUCCGAAAGGUGACGAUCCAAAUCGACGAAAGACACAGAACG [Box C/D Kt (Kt_SPR)]” was tested. Which Kd [1] did it give?
Answer: 14.5 nM

Question: What about the Kd [2] of the same sequence?
Answer: 599 nM

Question: “AGAGGCAGAGAAGGAAACUUCCAUGACGCCUCU [Cy5-CS2]” was tested. Which Kd [4] did it give?
Answer: < 0.5 nM

Question: With “GGUGGCAGAGAAAGGCGAAAGCCUUGUGAGGCCAUCAAAUCGACGAAAGACACAGAACG [CS1]” as the sequence, how does the Kd ([1]; equilibrium analysis) read?
Answer: 27.5 nM

Question: And the Kd [2]?
Answer: 0.00682 nM

Question: “GGAUGCAGAGAACGAAAGUUCCAUUACGCAUCCAAAUCGACGAAAGACACAGAACG [CS2-M3]” was tested. Which Kd [1] did it give?
Answer: 6.02 nM
